“Also recorded” adds a separate entry of the source. Like-named read-outs stand apart in the source and are kept apart here.
B1: CON-1: basic salivary proline-rich glycoprotein which binds concanavalin A, 124 amino acids, large form (protein)
chain: SPPGKPQGPPPQGGNQPQGPPPPPGKPQGPPPQGGNKPQGPPPPGKPQGPPPQGDNKSQSARSPPGKPQGPPPQGGNQPQGPPPPPGKPQGPPPQGGNKSQGPPPPGKPQGPPPQGGSKSRSSR
modifications: glycoprotein; glycosylation occurs at one N-linked site (acetylglucosamine on asparagine of glycine-glycine-asparagine-lysine)
B2: alpha-amylase: salivary protein tested for effect on alpha-glucosidase (protein, UniProt P0DUB6 16-511, looked up)
Alpha-amylase 1A: QYSSNTQQGRTSIVHLFEWRWVDIALECERYLAPKGFGGVQVSPPNENVAIHNPFRPWWERYQPVSYKLCTRSGNEDEFRNMVTRCNNVGVRIYVDAVINHMCGNAVSAGTSSTCGSYFNPGSRDFPAVPYSGWDFNDGKCKTGSGDIENYNDATQVRDCRLSGLLDLALGKDYVRSKIAEYMNHLIDIGVAGFRIDASKHMWPGDIKAILDKLHNLNSNWFPEGSKPFIYQEVIDLGGEPIKSSDYFGNGRVTEFKYGAKLGTVIRKWNGEKMSYLKNWGEGWGFMPSDRALVFVDNHDNQRGHGAGGASILTFWDARLYKMAVGFMLAHPYGFTRVMSSYRWPRYFENGKDVNDWVGPPNDNGVTKEVTINPDTTCGNDWVCEHRWRQIRNMVNFRNVVDGQPFTNWYDNGSNQVAFGRGNRGFIVFNNDDWTFSLTLQTGLPAGTYCDVISGDKINGNCTGIKIYVSDDGKAHFSISNSAEDPFIAIHAESKL
B3: CON-2: small form analog of CON-1, salivary glycoprotein of 82 amino acids (protein)
chain: SPPGKPQGPPPQGGNQPQGPPPPPGKPQGPPPQGGNKPQGPPPPGKPQGPPPQGGNKSQGPPPPGKPQGPPPQGGSKSRSSR

Key:
[1] = test system: glucoamylase; conditions: same concentration as for alpha-glucosidase
[2] = test system: debranching enzyme; assay: Enzyme assay of debranching enzyme in the presence of CON-1; type: biochemical; conditions: same concentration as for alpha-glucosidase
Method: Debranching enzyme activity was determined according to the method of Lee, et al. Arch. Biochem. Biophys., 143:315-374 (1971). The reaction mixture contains 2 mg of pullulan, 100 mM sodium citrate buffer (pH 7.0), and incubated at 37° C. for 60 minutes. The reducing sugar produced from phytoglycogen was determined according to the method of Bernfeld, Methods Enzymol. 1:149-158 (1955).

[3] = test system: CEM×179 cells; type: cell-based
Method: T cell proliferation assay: CEM×179 cells (2×10^5/well in 200 ul of complete medium) were cultured during 6 days at 37° C. in flat-bottomed microtiter wells, and T cell proliferation was evaluated following a 6 hr pulse of (3H)-thymidine (0.5 uCi/well) (Amersham, Bucks, England). Cultures were harvested (Skatron Instruments, Lier, Norway) and the radioactivity was measured using a beta-counter (Packard Gamma 5500).

[4] = type: physicochemical
Description: The crude preparation (either cell lysate, whole saliva, or parotid exudate) is collected at subzero temperatures, preferably into a dry-ice chilled container. The preparation is then heated to a temperature between 75 and 100 degrees Centigrade, for a period sufficient to cause denaturation of proteases. At lower temperatures, the time of exposure to heat may be increased up to one hour. Best results are obtained by heating an aliquot of the crude preparation in boiling water from 2 to about 10 minutes. Precipitated protein is then removed by centrifugation followed by an alcohol precipitation. The alcohol may be isopropyl, methyl, or ethyl, ethyl being preferred because of its nontoxic or USP properties. Alcohol precipitation is generally carried out overnight at 4 to 15 degrees.
In conventional purification strategies, the protein was either degraded too rapidly to remove contaminating proteases, or the protein is inherently unstable in the presence of alterative materials. Among those techniques attempted in purifying CON-1 and CON-2 are the following: Sephadex gel filtration, DEAE cation and anion exchange chromatography, preparative gradient SDS-gel electrophoresis, solvent precipitation in an initial step (methanol, propanol, isopropanol, butanol acetone, and phenol), concanavalin A affinity column chromatography, and blue dye gel affinity column chromatography. […]

[5] = target: yeast alpha-glucosidase (Saccharomyces cerevisiae, UniProt P53341); type: biochemical; conditions: for inhibitory effect on alpha-glucosidase activity (in words): 0.02 units of yeast alpha-glucosidase; for Specific Inhibitory Activity: decrease of 1 umole of glucose production from maltose per microgram of salivary protein per hour, stages of CON-1 purification; for change of inhibitory activity after removal of acetylglucosamine (in words): incubation with N-acetylglucosaminidase
Sequence of yeast alpha-glucosidase (P53341 whole entry): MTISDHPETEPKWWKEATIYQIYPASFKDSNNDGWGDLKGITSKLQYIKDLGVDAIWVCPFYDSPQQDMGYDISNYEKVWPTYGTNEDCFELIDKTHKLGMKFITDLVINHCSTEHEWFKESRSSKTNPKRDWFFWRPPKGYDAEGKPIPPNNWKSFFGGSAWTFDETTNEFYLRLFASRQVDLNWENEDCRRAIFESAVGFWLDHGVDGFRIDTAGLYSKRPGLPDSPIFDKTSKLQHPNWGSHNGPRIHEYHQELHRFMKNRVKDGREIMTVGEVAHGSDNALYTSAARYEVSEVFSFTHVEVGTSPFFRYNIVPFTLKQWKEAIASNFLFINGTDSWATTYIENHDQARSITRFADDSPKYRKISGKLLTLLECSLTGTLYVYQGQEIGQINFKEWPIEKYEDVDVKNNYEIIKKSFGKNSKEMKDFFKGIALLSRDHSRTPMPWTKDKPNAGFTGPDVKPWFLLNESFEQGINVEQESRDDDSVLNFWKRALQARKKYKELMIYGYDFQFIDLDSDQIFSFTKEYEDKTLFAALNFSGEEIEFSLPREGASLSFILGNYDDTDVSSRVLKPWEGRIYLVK
Method: The enzyme of alpha-glucosidase activity is according to the procedure as described by Sigma Chemical Company, St. Louis, Mo. Routinely, the enzyme reaction mixture contains 10 mM maltose and 50 ul of purified alpha-glucosidase or 0.02 units of yeast alpha-glucosidase in a final volume of 60 ul of 25 mM sodium acetate buffer, pH 5.6. The reaction mixture is incubated at 37° C. for 60 minutes, and the production of glucose is determined by the glucose oxidase reagent (Worthington Statzyme Glucose 500) in accordance with recommendation of Worthington Biochemical Corporation.

[6] = test system: invertase; assay: Enzyme assay of invertase in the presence of CON-1; type: biochemical; conditions: same concentration as for alpha-glucosidase
Method: The enzyme reaction was incubated with 5 mM sucrose as substrate in 50 mM acetate buffer pH 5.0 at 37° C. for 60 minutes. The production of glucose was determined as described in "Enzyme Assay of Alpha-Glucosidase Activity".

[7] = test system: beta-amylase; assay: Enzyme assay of beta-amylase activity in the presence of CON-1; type: biochemical; conditions: same concentration as for alpha-glucosidase
Method: (§1) The enzyme reactions of alpha- and beta-amylases contained 2 mg of phytoglycogen as substrate in 0.05 M sodium acetate buffer, pH 5.4; and were incubated at 37° C. for 60 minutes. The liberation of reducing sugar from phytoglycogen was measured by the reduction of 3,5-nitrosalicyclic acid as described by Bernfeld, Methods Enzymol. 1:149-158 (1955).

[8] = test system: alpha-amylase; assay: Enzyme assay of alpha-amylase activity in the presence of CON-1; type: biochemical; conditions: same concentration as for alpha-glucosidase
Method: as §1

[9] = test system: HIV-1; conditions: CEMx174 cells
Method: To test whether the alpha-glucosidase inhibitor activity of CON-1 could also intervene in HIV adsorption to target cells, thereby reducing infectivity and production of viral proteins, the following experiment was carried out: CEMx174 cells, as described by Hoxie, et al., J. Virol., 62: 2557 (1988), were infected at a concentration of 500,000 cells per ml for 2 hours at 37 degrees Centigrade with cell-free HIV-1, isolated as described in Alizon, et al., Nature, 312: 757 (1984), by adding virus at a concentration of 300 ng of HIV p24 protein per ml. Components of complete medium: RPMI 1640 with 10% fetal bovin serum, 2 mM L-glutamine, penicillin at 100 units/ml, and streptomycin at 100 ug/ml) with phytohemagglutin (PHA, 1 ug/ml; Sigma). After the 2 hour incubation, the virus inoculum was washed off and the cells were resuspended in complete culture medium containing various amounts of CON-1 protein. The cells were incubated in 96-well microtiter plates (5×10^4 cells in 200 ul per well), and cell-free supernatants were collected 72 hours after infection.
The amount of HIV p24 in the cell-free supernatant was determined with a commercially available ELISA kit (Coulter) according to the manufacture's instructions. The HCEM cell line described in Pauza, et al. J. Virol., 63:3700 (1989) was used to assess the effect of CON-1 on HIV production from chronically infected cells. HCEM cells were pretreated with CON-1 at 10 ug/ml for 4 hours, washed twice with phosphate-buffered saline and then incubated at 10^6 cells per ml in complete medium in the presence of CON-1 at 10 ug/ml, respectively. After 48 hours, cell-free supernatants were collected to determine HIV p24 levels by ELISA.

[10] = supernatant 72 hours after infection (FIG. 9)

| Molecule | inhibitory effect on glucoamylase (in words) [1] | inhibitory effect on debranching enzyme (in words) [2] | amount of protein showing no toxic effect on the cell line [3] | stability to denaturing conditions (in words) [4] | inhibitory effect on alpha-glucosidase activity (in words) [5] | inhibitory activity lost after deglycosylation ([5]; CON-1 treated with PNGase versus native glycosylated CON-1 (FIG. 8)) | Specific Inhibitory Activity [5] | Specific Inhibitory Activity ([5]; listed as SDS Gel Electrophoresis Slice) | change of inhibitory activity after removal of acetylglucosamine (in words) [5] | inhibitory effect on invertase (in words) [6] | inhibitory effect on beta-amylase (in words) [7] | inhibitory effect on alpha-amylase (in words) [8] | concentration at which significant inhibition of p24 production first occurs [9, 10] [µg/mL] | concentrations showing marked inhibition of p24 production [9, 10] | effect on HIV p24 production (in words) ([9]; up to 20 ug/ml) |
| --- | --- | --- | --- | --- | --- | --- | --- | --- | --- | --- | --- | --- | --- | --- | --- |
| B1 | essentially no inhibitory effect | None of the other enzymes is significantly affected; also recorded: essentially no inhibitory effect | up to 50 ug/assay | extreme stability to denaturing conditions | inhibition of essentially all enzyme activity; also recorded: completely inhibited the enzyme; also recorded: nearly complete | about 50% | about 2810 | 2810.0 | marked reduction in inhibitory activity | None of the other enzymes is significantly affected; also recorded: essentially no inhibitory effect | None of the other enzymes is significantly affected; also recorded: essentially no inhibitory effect | None of the other enzymes is significantly affected; also recorded: essentially no inhibitory effect | 2.5 | above 1.25 ug/ml | profound reductions in signal markers of viral replication |
| B2 | – | – | – | – | significantly enhance enzyme activity | – | – | – | – | – | – | – | – | – | – |
| B3 | essentially no inhibitory effect | essentially no inhibitory effect | – | extreme stability to denaturing conditions | nearly complete | – | – | – | marked reduction in inhibitory activity | essentially no inhibitory effect | essentially no inhibitory effect | essentially no inhibitory effect | – | – | – |
